This is an account of results in patent US20220054583A1 (ANBITION S R L, published 2022).

The target of test [1] is human recombinant receptor VEGFR-1, seven extracellular domains fused to the Fc domain of human IgG (R&D Systems, cat No 321-FL) (human) (UniProt P17948). Nature of the test: competition ELISA, residual binding of PlGF (5 ng/ml) to coated VEGFR-1-Fc, peptide 780 nM. (ELISA stands for enzyme-linked immunosorbent assay.)
Test [2] shares this target. Nature of the test: competition ELISA, residual binding of PlGF (5 ng/ml) to coated VEGFR-1-Fc, peptide 1560 nM.
Test [3] shares this target. As to the kind of experiment: competition ELISA, residual binding of PlGF (5 ng/ml) to coated VEGFR-1-Fc, peptide 3125 nM.
For test [4] the target is unchanged. As to the kind of experiment: competition ELISA, residual binding of PlGF (5 ng/ml) to coated VEGFR-1-Fc, peptide 6250 nM.
Test [5] shares this target. As to the kind of experiment: competition ELISA, residual binding of PlGF (5 ng/ml) to coated VEGFR-1-Fc, peptide 12500 nM.
The target is the same in test [6]. Nature of the test: competition ELISA, residual binding of PlGF (5 ng/ml) to coated VEGFR-1-Fc, peptide 25000 nM.
The target is the same in test [7]. As to the kind of experiment: competition ELISA, residual binding of PlGF (5 ng/ml) to coated VEGFR-1-Fc, peptide 50000 nM.
For test [8] the target is unchanged. As to the kind of experiment: competition ELISA, residual binding of VEGF-A (5 ng/ml) to coated VEGFR-1-Fc, peptide 780 nM.
The target is the same in test [9]. Nature of the test: competition ELISA, residual binding of VEGF-A (5 ng/ml) to coated VEGFR-1-Fc, peptide 1560 nM.
The target is the same in test [10]. Nature of the test: competition ELISA, residual binding of VEGF-A (5 ng/ml) to coated VEGFR-1-Fc, peptide 3125 nM.
The target is the same in test [11]. Nature of the test: competition ELISA, residual binding of VEGF-A (5 ng/ml) to coated VEGFR-1-Fc, peptide 6250 nM.
Test [12] shares this target. Nature of the test: competition ELISA, residual binding of VEGF-A (5 ng/ml) to coated VEGFR-1-Fc, peptide 12500 nM.
The target is the same in test [13]. Nature of the test: competition ELISA, residual binding of VEGF-A (5 ng/ml) to coated VEGFR-1-Fc, peptide 25000 nM.
Test [14] has the same target. As to the kind of experiment: competition ELISA, residual binding of VEGF-A (5 ng/ml) to coated VEGFR-1-Fc, peptide 50000 nM.

human recombinant receptor VEGFR-1, seven extracellular domains fused to the Fc domain of human IgG (R&D Systems, cat No 321-FL) (human), sequence (P17948 27-758): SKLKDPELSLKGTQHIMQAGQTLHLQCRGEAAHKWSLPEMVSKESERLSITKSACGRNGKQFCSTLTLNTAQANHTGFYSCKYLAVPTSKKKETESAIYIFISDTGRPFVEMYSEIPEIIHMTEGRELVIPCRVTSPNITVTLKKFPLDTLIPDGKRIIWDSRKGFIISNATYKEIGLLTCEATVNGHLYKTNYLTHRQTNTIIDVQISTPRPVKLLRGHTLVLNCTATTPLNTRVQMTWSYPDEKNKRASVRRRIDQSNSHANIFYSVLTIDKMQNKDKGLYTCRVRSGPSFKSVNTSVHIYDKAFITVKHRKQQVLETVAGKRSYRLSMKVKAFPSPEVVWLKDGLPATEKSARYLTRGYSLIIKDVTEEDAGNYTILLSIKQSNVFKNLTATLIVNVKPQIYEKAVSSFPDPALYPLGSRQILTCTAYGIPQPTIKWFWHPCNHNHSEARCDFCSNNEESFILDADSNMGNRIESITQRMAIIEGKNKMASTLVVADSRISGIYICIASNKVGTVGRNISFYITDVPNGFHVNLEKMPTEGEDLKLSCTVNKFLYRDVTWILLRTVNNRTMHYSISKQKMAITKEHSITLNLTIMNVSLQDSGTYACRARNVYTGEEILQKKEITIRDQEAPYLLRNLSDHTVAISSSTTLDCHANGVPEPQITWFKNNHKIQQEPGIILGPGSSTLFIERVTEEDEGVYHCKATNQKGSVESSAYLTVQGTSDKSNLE

As to “control peptide (PC), (S-Ser)-(S-Ala)-(S-Cha) tripeptide with a tetrameric structure identical to the structure of the iVR1 peptides”, the binding % is 98.9% in test [1]; 102% in test [2]; 99.5% in test [3]; 93.8% in [4]; 87.2% in test [5]; 88.5% in test [6]. In addition, the binding % in [7] worked out at 90.2%; in [8], 100%; in test [9] it was 103%; in test [10] it was 95.2%; in [11] it was 91.4%; in test [12] it was 100%. Besides, the figures for the binding % in [13] and in [14] were 93.4% and 87.9%, respectively.
